Patent publication US20250066498A1 (GO THERAPEUTICS, published 2025)
Ends that are not written are not given here. GalNAc = N-acetylgalactosamine O-linked to a serine or threonine side chain

T1: podoplanin glycopeptide ERGTKPPLEELSGK
T1 construct: also called PDPN glycopeptide; Tn antigen derived from podoplanin
T1 peptide: ERGT(GalNAc)KPPLEELSGK

T2: LAMP1-Tn peptide Biotin-CEQDRPSPTTAPPAPPSPSP (human, N-terminal biotin; O-linked GalNAc on the serine at position 7 and the threonines at positions 9 and 10)
T2 construct: Synthetic 20-mer glycopeptide made by FMOC synthesis; also called LAMP1 glycopeptide; glycosylated LAMP1 peptide
T2 peptide: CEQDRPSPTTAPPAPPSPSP

T3: LAMP1-Tn (T1) peptide Biotin-CEQDRPSPTTAPPAPPSPSP (human, N-terminal biotin; GalNAc on one threonine (label 'T1'). By the order of items in paragraph 452 and paragraph 453 this is the threonine at position 9)
T3 construct: Singly glycosylated form of the LAMP1 20-mer
T3 peptide: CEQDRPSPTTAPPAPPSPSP


What was measured:
[1] = target: T1, podoplanin glycopeptide ERGTKPPLEELSGK; experiment: BLI (Octet), peptide on biosensor, apparent affinity (Example 3)
Protocol: (§1) Antibody affinity and epitope binning of monoclonal antibodies can be assessed against specific antigens using BLI. […] The affinity is determined by fitting the binding curve to a specific model: a 1:1 monovalent model or a 2:1 bivalent model. The error (>95% confidence) is calculated by how close the generated curve matches the model.
(§2) To characterize the cross-reactivity between mAb237 the anti-glyco-LAMP1 antibodies 3C7, 13C3, and 13G2, the affinities of mAb237, 3C7, 13C3, and 13G2 against the glycosylated LAMP1 peptide, the unglycosylated LAMP1 peptide, and the podoplanin glycopeptide were determined by Octet. Table 8 summarizes the dissociation constants (Kd) for mAb237, 3C7, 13C3, and 13G2 against the glycosylated LAMP1 peptide, the unglycosylated LAMP1 peptide, and the podoplanin glycopeptide. No cross reactivity was observed despite the sequence similarities observed between mAb237 and 3C7, 13C3, and 13G2.

[2] = target: T2, LAMP1-Tn peptide …; experiment: BLI (Octet), peptide on biosensor, apparent affinity
[3] = target: T3, LAMP1-Tn (T1) peptide …; experiment: as above
[4] = target: T2, LAMP1-Tn peptide …; experiment: SPR (Biacore), antibody immobilised, peptide as analyte
Protocol: Antibody affinity assays can be carried out using surface plasmon resonance (e.g., using a Biacore system (Cytiva)). […] The affinity is determined by fitting the binding curve to a specific model: kinetic fit (1:1 model) or if applicable heterogenous ligand binding model.
To characterize the binding specificities of 3C7, 13C3, and 13G2 for non-glycosylated and Tn-glycosylated LAMP1, flow cytometry analysis of the LAMP1 mouse antibodies on T47D COSMC-KO cells was performed. […] The affinities of 3C7, 13C3, and 13G2 against the LAMP1 glycopeptides were determined by Biacore and Octet. Table 7 summarizes dissociation constants (Kd) for 3C7, 13C3, and 13G2 against different glycoforms of LAMP1 peptide, as well as unglycosylated LAMP1 and MUC1-Tn.

[5] = target: T2, LAMP1-Tn peptide …; experiment: BLI (Octet), peptide on biosensor, apparent affinity (Example 3)
Protocol: as §1, §2

Kd [1] [nM]	Kd [2] [nM]	Kd [3] [nM]	Kd [4] [nM]	Kd [5] [nM]	Binder
1.53					mAb237 (antibody, V domains shown, Recombinant mouse antibody bought from Creative Biolabs (Brooks et al., 2010), specific for the podoplanin Tn glycopeptide; also called wild type mAb237) VH: QVQLQQSGGGLVQPGGSMKIFCAASGFTFSDAWMDWVRQSPEKGLEWVAEIRNKANNHETYYAESVKGRFTITRDDSKSRMSLQMNSLRAEDTGIYYCSGGKVRNAYWGQGTTVTVSS VL: DIQLTQTPLSLPVSLGDQASISCRSSQSLVHSVGNTYLHWYLQKPGQSPKLLIYKVSNRFSGVPDRFSGSGSGTDFTLKISSVEAEDLGVYFCSQSTHVPTFGGGTKLEIK
	18.2	810	28.7	13.9	3C7.2C11.1C9 (antibody, V domains shown, Mouse monoclonal antibody from a hybridoma (Balb/c mice immunised with KLH-LAMP1-Tn glycopeptide)) VH: EVKLEESGGGLVQPGGSMKVSCGASGFTFSDAWMDWVRQSPEKGLEWVAEMRSKAFNHAIYYAESVKGRFTISRDDSKSRVYLQMNLLRPEDTGIYYCTPNWDEGFAYWGQGTLVTVSA VL: DVMLTQTPLSLPVSLGDQASISCRSSQSLVHSNGNTYLHWYLQKPGQSPKLLINKVSNRFFGVPDRFSGSGSGTDFTLKISRVEAEDLGVYFCSQSTHVPRTFGGGTKLEIK
